Data published in PMC6957250 (Experimental and molecular pathology, 2016).
Where two headings read alike, the source gives them in different places.

Assays:
Assay in all cases: ELISA
[1] = biological target: recombinant CD32B ectodomain (Homo sapiens (assumed), UniProt P31994)
[2] = biological target: recombinant CD16B ectodomain (Homo sapiens, UniProt O75015)
[3] = biological target: recombinant CD64A ectodomain (Homo sapiens (assumed), UniProt P12314)
[4] = biological target: recombinant CD32A ectodomain (Homo sapiens (assumed), UniProt P12318)
[5] = biological target: T1, recombinant CD16A-mFc (CD16A-158V extracellular domain fused to monomeric Fc) (Homo sapiens, allotype 158V, UniProt P08637, strain)
[6] = biological target: T1, recombinant CD16A-mFc (CD16A-158V …); remark: listed apart in the source
[7] = biological target: CD16A-158F-mFc (CD16A carrying the 158F isoform, monomeric Fc fusion) (Homo sapiens, allotype 158F, UniProt P08637)
CD16A-158F-mFc (CD16A carrying the 158F isoform, monomeric Fc fusion), sequence (P08637 17-208): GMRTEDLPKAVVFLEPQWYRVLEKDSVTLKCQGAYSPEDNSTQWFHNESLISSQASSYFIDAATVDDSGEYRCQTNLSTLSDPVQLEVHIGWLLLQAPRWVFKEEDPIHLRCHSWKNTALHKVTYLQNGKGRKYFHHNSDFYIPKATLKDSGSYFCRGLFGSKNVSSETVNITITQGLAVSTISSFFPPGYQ

T1 sequence (P08637 17-208, change not shown): as the sequence (P08637 17-208) above
recombinant CD32A ectodomain, sequence (P12318 34-217): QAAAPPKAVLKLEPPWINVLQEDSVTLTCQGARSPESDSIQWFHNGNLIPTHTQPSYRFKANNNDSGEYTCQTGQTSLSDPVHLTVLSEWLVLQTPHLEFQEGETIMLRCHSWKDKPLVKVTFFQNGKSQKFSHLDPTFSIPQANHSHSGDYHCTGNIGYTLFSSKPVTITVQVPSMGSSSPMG
recombinant CD32B ectodomain, sequence (P31994 43-217): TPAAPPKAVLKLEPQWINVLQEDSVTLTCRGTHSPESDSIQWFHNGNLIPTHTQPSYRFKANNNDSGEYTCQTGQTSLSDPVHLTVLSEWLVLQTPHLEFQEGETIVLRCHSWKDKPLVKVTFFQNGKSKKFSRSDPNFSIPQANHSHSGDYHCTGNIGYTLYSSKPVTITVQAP
recombinant CD16B ectodomain, sequence (O75015 whole entry, looked up, the tested form may be a part): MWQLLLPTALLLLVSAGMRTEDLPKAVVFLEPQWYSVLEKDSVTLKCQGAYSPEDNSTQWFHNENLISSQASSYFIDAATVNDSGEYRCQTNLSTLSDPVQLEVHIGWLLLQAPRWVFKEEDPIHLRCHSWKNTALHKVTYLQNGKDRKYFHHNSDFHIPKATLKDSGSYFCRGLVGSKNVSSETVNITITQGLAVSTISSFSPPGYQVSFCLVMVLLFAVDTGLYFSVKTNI
recombinant CD64A ectodomain, sequence (P12314 16-292): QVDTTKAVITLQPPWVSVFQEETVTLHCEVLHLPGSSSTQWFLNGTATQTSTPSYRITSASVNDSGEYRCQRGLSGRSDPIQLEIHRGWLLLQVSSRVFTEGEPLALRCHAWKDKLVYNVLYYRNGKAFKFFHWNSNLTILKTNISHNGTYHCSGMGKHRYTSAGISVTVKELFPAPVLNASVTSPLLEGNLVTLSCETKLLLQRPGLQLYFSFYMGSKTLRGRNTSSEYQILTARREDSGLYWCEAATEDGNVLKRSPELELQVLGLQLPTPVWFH

Binder	binding result [1]	binding result [2]	binding result [3]	binding result [4]	EC50 [5] [nM]	EC50 [6] [nM]	binding result [7]
antibody domain D6 (VHH) VH: EVQLVESGGGLVQPGGSLRLSCAASGFTFSNYGMSWVRQAPGKGLEWIGSIYYSGGSTNYNPSLKGSLVISRDNSKNTLYLQMNSLAEDTATYYCARESIDYWGQGTLVTVSS	no binding	no binding	no binding	no binding	~60	4	binds
antibody domain E11 (VHH) VH: EVQLVESGGGLVQPGGSLRLSCAASGFTFSSYGMSWVRQAPGKGLEWIGEVNHSGGSTNYNPSLKGSFVISRDNSKNTLYLQMNSLAEDTAVYYCARVGSFDFWGQGTLVTVSS	no binding	no binding	no binding	no binding		8	binds
